Experimental data taken from patent publication US20190322747A1 (ZHEJIANG TERUISI PHARMACEUTICAL, published 2019).

Legend:
Experiment in all cases: ELISA, antigen coated at 5 µg/mL, anti-HA detection, absorbance at 405 nm
[1] = target: T1, PD-1 (mice) antigen protein, coated (mouse, UniProt Q02242 25-167, limits assumed)
T1 construct: also called mouse PD-1
T1 sequence (looked up): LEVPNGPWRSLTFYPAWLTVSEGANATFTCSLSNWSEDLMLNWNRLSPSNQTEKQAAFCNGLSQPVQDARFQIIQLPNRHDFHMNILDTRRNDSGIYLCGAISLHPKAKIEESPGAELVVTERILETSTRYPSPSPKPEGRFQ
Method: (§1) (2) The antigen proteins PD-1 (human), PD-1 (monkey), PD-1 (mice), ICOS(human), CTLA-4 (human), CD28 (human), IgG1 (human) were coated overnight at 4° C. with 0.5 μg per well (5 μg/mL, 100 μL), and IgG1 was coated as a control.
(§2) (3) The plates were washed by PBST (×5) next day, and 200 μL 1% BSA was added to block in RT for 2 hours;

[2] = target: CD28 (human) antigen protein, coated (human, UniProt P10747 19-152)
Method: as §1, §2

[3] = target: T2, ICOS (human) antigen protein, coated (human, UniProt Q9Y6W8 21-140, limits assumed)
T2 sequence (looked up): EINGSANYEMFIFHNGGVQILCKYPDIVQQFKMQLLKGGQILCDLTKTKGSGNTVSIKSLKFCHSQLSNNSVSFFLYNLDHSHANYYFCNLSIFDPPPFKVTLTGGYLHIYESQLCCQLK
Method: as §1, §2

[4] = target: T3, CTLA-4 (human) antigen protein, coated (human, UniProt P16410 36-161, limits assumed)
T3 sequence (looked up): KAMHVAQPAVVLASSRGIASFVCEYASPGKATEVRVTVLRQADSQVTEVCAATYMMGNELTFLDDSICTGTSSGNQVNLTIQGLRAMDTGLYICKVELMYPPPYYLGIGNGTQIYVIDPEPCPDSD
Method: as §1, §2

Measured: binding result

Sequence of CD28 (human) antigen protein, coated (P10747 19-152 limits assumed): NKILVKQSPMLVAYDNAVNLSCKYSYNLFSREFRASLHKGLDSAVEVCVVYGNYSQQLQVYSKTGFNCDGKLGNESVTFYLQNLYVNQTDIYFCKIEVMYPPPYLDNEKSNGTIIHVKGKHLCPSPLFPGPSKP

B1: humanized PD-1 nanobody (amino acid sequence SEQ ID NO.: 14) (VHH)
VHH: QVQLQESGGGLVQPGGSLRLSCAASGSTYLRFSMGWFRQVPGKGLEGVAAIGGDGRTSYADSVKGRFTISKDNSKNTLYLDMNSLRAEDTAVYYCAAAVLLDGSFSLLAPLVPYKYDYWGQGTLVTVSS
modifications: biotinylated (Example 9, sites not stated)
notes: also called Nanobody after humanization; humanized nanobody; not shown: HA and His tags from the pMECS vector
no binding (tested: 10 µg/mL): all assays above
